Laboratory results as given in article PMC3240820 (Structure (London, England : 1993), 2011).
Like-named read-outs stand apart in the source and are kept apart here. Each block holds one binder with its values, some of them ahead of it.

Columns and labels:
[1] = target: the molecule itself
[2] = target: T1, CaMK domain of CASK (CASK310), residues 1-310 (UniProt O14936 1-310); assay: co-precipitation on dialysis into low salt
T1 sequence (looked up): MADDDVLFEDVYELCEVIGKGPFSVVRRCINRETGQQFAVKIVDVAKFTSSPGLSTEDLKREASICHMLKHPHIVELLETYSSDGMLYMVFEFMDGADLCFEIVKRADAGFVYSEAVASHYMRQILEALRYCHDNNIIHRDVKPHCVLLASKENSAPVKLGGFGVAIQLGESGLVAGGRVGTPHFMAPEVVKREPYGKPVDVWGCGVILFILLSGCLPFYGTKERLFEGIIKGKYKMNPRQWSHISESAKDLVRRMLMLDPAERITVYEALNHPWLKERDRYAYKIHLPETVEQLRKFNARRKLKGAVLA

crystal structure = target: the molecule itself; assay: crystal structure
Caskin1 CID-2SAMs G520E = Caskin1 CID-2SAMs G520E (human, UniProt Q8WXD9 375-605, G520E); assay: SEC
Caskin1 CID-2SAMs G520E, sequence (Q8WXD9 375-605 G520E): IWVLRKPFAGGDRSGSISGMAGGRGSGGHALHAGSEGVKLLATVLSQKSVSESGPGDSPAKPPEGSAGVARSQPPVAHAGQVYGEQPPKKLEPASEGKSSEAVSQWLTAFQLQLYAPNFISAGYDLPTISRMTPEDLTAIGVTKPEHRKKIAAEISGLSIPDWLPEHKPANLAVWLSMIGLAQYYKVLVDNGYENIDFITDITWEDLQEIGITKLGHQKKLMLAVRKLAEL

B1: Caskin1 SAMs (E470-G615) with the His-tag removed (domain or fragment)
chain: not shown
- binding result [1]: binds

B3: Caskin1 6His-(E470-G615) (domain or fragment)
chain: not shown
- binding result (crystal structure): binds

Continued, values first:

- binding result [2]: binds
B2: Caskin1 CID-2SAMs (residues 375-605) (domain or fragment)
chain: not shown

- binding result (Caskin1 CID-2SAMs G520E): binds
B4: Caskin1 CID-2SAMs G566K (domain or fragment)
chain: not shown
